In assay [1] the target is T1, recombinant Smurf1 protein (UniProt Q9HCE7 1-757).
T1 chain: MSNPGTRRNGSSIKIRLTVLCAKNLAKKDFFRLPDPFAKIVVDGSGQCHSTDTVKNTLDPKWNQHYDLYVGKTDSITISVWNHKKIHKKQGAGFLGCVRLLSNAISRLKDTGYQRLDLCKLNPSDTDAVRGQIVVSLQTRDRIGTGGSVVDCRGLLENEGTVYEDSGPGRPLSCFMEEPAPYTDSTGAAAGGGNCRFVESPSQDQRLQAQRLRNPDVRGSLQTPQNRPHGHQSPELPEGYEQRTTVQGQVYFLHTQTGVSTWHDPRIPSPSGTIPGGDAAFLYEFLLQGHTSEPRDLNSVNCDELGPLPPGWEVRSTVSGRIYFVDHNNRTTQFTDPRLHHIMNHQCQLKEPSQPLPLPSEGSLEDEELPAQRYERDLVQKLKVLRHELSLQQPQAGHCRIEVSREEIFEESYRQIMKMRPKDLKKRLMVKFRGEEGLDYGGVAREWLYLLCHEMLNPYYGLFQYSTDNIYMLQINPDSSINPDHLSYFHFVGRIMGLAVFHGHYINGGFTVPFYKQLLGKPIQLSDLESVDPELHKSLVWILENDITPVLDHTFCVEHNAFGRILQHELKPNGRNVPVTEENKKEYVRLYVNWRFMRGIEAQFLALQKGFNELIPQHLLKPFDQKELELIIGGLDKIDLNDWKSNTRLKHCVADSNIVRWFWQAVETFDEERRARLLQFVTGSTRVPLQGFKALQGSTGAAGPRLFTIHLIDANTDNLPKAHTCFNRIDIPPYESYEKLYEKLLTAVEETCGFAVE
In words: SPR.

Assay [2] has as its target T2, recombinant Smurf1 protein (UniProt Q9HCE7 1-757).
T2 construct: Smad ubiquitination regulatory factor 1 (Smurf1), recombinant protein immobilised on a CM5 chip for SPR; also called Smad ubiquitination regulatory factor 1; E3 ubiquitin-protein ligase Smurf1
In words: SPR; recombinant Smurf1 immobilised on a CM5 sensor chip by amine coupling; TRIB3 protein applied at 31 nM to 8 uM; Biacore T200, kinetics model. As to conditions: both partners purified. On the technique in general: Surface plasmon resonance follows binding to a sensor surface in real time, without labels.

B1: recombinant TRIB3 protein (natural protein, UniProt Q96RU7 1-358, looked up)
chain: MRATPLAAPAGSLSRKKRLELDDNLDTERPVQKRARSGPQPRLPPCLLPLSPPTAPDRATAVATASRLGPYVLLEPEEGGRAYQALHCPTGTEYTCKVYPVQEALAVLEPYARLPPHKHVARPTEVLAGTQLLYAFFTRTHGDMHSLVRSRHRIPEPEAAVLFRQMATALAHCHQHGLVLRDLKLCRFVFADRERKKLVLENLEDSCVLTGPDDSLWDKHACPAYVGPEILSSRASYSGKAADVWSLGVALFTMLAGHYPFQDSEPVLLFGKIRRGAYALPAGLSAPARCLVRCLLRREPAERLTATGILLHPWLRQDPMPLAPTRSHLWEAAQVVPDGLGLDEAREEEGDREVVLYG
notes: Tribbles homolog 3 (TRIB3), recombinant protein flowed over the chip in SPR; also called tribbles homolog 3
By koff is commonly meant the first-order rate constant of dissociation. Broadly, the Kd is the constant that tells how readily two partners part at equilibrium. With B1, the off-rate (koff) in assay [1] amounted to 0.0015 s⁻¹. Besides, in assay [2], the Kd is 1030 nM.

(Values after publication PMC11957692, “TRIB3 mediates vascular calcification by facilitating self-ubiquitination and dissociation of Smurf1 in chronic kidney disease” (The Journal of Clinical Investigation, 2025).)
